Results: patent publication US9217013B2, “Treatment of amyloidoses using myelin basic protein and fragments thereof” (The Research Foundation for the State University of New York, priority 2008, dated 2015)
“Also recorded” adds a separate entry of the source.

What was measured:
Dutch/Iowa Aβ40 (Aβ40DI) = Dutch/Iowa Aβ40 (Aβ40DI) (Homo sapiens, UniProt P05067, D694N/E693Q); test: TEM and single-touch AFM of Aβ40DI fibril formation; format: biochemical
Method: FIG. 18 Inhibition of Aβ40DI fibril formation by MBP as assessed by TEM and single-touch AFM analyses. Aβ40DI peptides at a concentration of 12.5 μM in PBS in the absence or presence of 1.56 μM MBP. Samples were imaged at 6 h by TEM (A and B) and at 3 h by single-touch AFM (D and E). Aliquots of 1.56 μM MBP alone were imaged by TEM (C) and by AFM (F).
For electron microscopy, a 20 μl aliquot of the sample mixture was deposited onto a Formvar-coated copper mesh grid. The sample was allowed to stand for 60 s, and excess solution was wicked away. The samples were negatively stained with 2% (w/v) uranyl acetate. The excess stain was wicked away, and the sample was allowed to dry. The samples were viewed with an FEI Tecnai 12 BioTwin transmission electron microscope, and digital images were taken with an Advanced Microscopy Techniques camera.
Atomic force microscopy (“AFM”) was carried out using a lifeScan controller (LifeAFM Inc., Port Jefferson, N.Y.) interfaced with a MultiMode microscope (Digital Instruments, Santa Barbara, Calif.) fitted with an E seamier. With this instrument configuration, only a single contact of the AFM probe is made with the sample per pixel. Computer control of the cantilever position and angle during approach allows for detection of the sample height with minimum cantilever deflection, allowing for a minimum compressive force (30-100 piconewtons/nm) applied to the sample. AFM samples were prepared by adsorbing 20 μl of sample mixture to freshly cleaved ruby mica (S & J Trading, Inc., Glen Oaks, N.Y.) for 45 min to 1 h. The samples were rehydrated with ultrapure Milli-Q water (Millipore Corp., Billerica, Mass.) and immediately imaged. Samples were imaged using SuperSharpSilicon probes (SSS-CONT, NANOSENSORS, Neuchatel, Switzerland) that were modified for magnetic retraction by attaching samarium cobalt particles. The effective diameter of the SuperSharpSilicon probes was 4±1 nm at a height of 2 nm. Data analysis and graphics were performed using Interactive Display Language Version 5.0 (Research Systems, Inc., Boulder, Colo.). In the Z-scale bars, numbers in each color square indicate the Z-value at the middle of the range for that color.

Aβ40DI = Aβ40DI (Homo sapiens, UniProt P05067, D694N/E693Q); test: Co-immunoprecipitation of MBP with Aβ40DI; format: binding; conditions: purified MBP
Method: AP peptides were resuspended in Me2SO to 2.5 mM and used at 10.8 μM. MBP was used at 1.56 μM. Proteins were combined in 250 μl of incubation buffer (PBS, 0.05% Tween 20, and 1% BSA). Anti-MBP mAb 382 was added to each sample mixture and incubated for 1 h at 4° C. with rocking. After incubation, 20 μl of washed GammaBind protein G-Sepharose beads (Amersham Biosciences) were added to each mixture, followed by incubation for an additional 1 h at 4° C. with rocking. Beads were separated by centrifugation at 8000×g for 2 min. Supernatants were removed, and beads were washed with 1 ml of incubation buffer. Separation and washing were repeated three times. A final wash was performed in PBS and 0.05% Tween 20 to remove excess BSA. Centrifuged beads were combined with 25 μl of reducing SDS-PAGE loading buffer and heated as described above. 10 μl of each sample/loading buffer mixture was loaded onto 10-20% Tricine gels (Invitrogen) and electrophoresed at 125 V for 35 min. Immunoblotting was carried out as described above using either biotinylated anti-MBP mAb 384 or biotinylated anti-Aβ mAb 3D6 as primary antibody. Experiments were performed in triplicate.

wild-type Aβ42 = wild-type Aβ42 (Homo sapiens, UniProt P05067); test: Thioflavin T fluorescence assay of Aβ42 fibril formation; format: biochemical; conditions: 12.5 μM Aβ42, 1.56 μM MBP
Method: FIG. 19 Thioflavin T analysis for inhibition of Aβ42 fibril formation by MBP. Aβ42 at a concentration of 12.5 μM in PBS in the absence (diamond) or presence of 1.56 μM MBP (triangle) or 1.56 μM […]-lactalbumin (square) as control. The data shown are the mean S.D. of triplicate samples.
The Aβ B binding properties of the exemplary fragments of MBP described herein were determined in a thioflavin T fluorescence assay as follows: Lyophilized Aβ peptides were first resuspended with Me2SO to 2.5 mM, diluted to 12.5 μM in PBS, and then incubated at 37° C. with rocking either alone or with 1.56 μM MBP or bovine α-lactalbumin. Control samples containing 0.5% Me2SO and 1.56 μM MBP or lactalbumin in PBS were also included. At each time point, 100 μl samples of each reaction were placed in a 96-well microplate in triplicate, and 5 μl of 100 µM thioflavin T was added. The plate was mixed and incubated at 22° C. in the dark for 10 min. Fluorescence was measured at 490 nm with an excitation wavelength of 446 nm in a SpectraMax spectrofluorometer (Molecular Devices, Sunnyvale, Calif.) using SoftMax Pro control software. It is apparent that the method enables persons of skill in the art to determine the binding properties of MBP, variants thereof, and fragments thereof for any Aβ-peptide, including mutants thereof.

[1] = in the presence of MBP at 3 hours

B1: myelin basic protein (protein)
chain: ASQKRPSQRHGSKYLATASTMDHARHGFLPRHRDTGILDSIGRFFGGDRGAPKRGSGKDSHHPARTAHYGSLPQKSHGRTQDENPVVHFFKNIVTPRTPPPSQGKGRGLSLSRFSWGAEGQRPGFGYGGRASDYKSAHKGFKGVDAQGTLSKIFKLGGRDSRSGSPMARR
notes: myelin basic protein, major form about 18.5 Kd (170 residues); purified protein
aggregation of MBP alone (TEM and AFM) (Dutch/Iowa Aβ40 (Aβ40DI); 1.56 μM MBP alone): does not aggregate significantly | Aβ40DI fibril formation by TEM (Dutch/Iowa Aβ40 (Aβ40DI); 6 hours, sub-stoichiometric MBP): no evidence of fibril formation | heights of Aβ40DI oligomers and protofibrils by AFM (Dutch/Iowa Aβ40 (Aβ40DI); [1]): ≈ 2 nm | lengths of Aβ40DI oligomers and protofibrils by AFM (Dutch/Iowa Aβ40 (Aβ40DI); [1]): < 200 nm | preference for Aβ40DI over Aβ40WT by immunoprecipitation (Aβ40DI): showed no preference | inhibition of wild-type Aβ42 fibrillogenesis (thioflavin T) (wild-type Aβ42): prevents fibrillization; also recorded: inhibited
